The record followed here is patent US20250382376A1 (FUDAN UNIVERSITY, published 2025).

Experiment [1] addresses T1, extracellular domain of human CD73 protein, C-terminus polyhistidine-tagged (human, UniProt P21589 27-547).
T1 construct: also the immunogen; also called CD73-ECD; human CD73-ECD
T1 sequence: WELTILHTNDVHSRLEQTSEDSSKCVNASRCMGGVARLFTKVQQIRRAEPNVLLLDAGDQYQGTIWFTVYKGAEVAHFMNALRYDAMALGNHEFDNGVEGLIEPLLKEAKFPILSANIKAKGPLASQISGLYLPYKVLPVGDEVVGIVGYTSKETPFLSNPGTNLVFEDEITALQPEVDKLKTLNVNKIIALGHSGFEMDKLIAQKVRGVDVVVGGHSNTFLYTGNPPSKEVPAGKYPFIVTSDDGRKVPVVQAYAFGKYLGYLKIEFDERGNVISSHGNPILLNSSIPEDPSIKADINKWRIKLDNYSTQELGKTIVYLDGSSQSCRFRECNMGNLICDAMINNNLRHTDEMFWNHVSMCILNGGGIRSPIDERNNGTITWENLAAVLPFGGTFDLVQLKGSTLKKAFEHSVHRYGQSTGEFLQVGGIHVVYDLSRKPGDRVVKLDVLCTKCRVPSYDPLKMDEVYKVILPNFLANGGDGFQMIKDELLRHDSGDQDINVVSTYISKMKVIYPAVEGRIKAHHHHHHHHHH
The experiment is described as follows: ELISA on human CD73-ECD, 1 µL supernatant of transfected HEK293F cells; PBS blank 0.073. As to the method:
(§1) The CD73 protein extracellular region (CD73-ECD) was diluted to 1 μg/mL using the coating solution, and an ELISA plate was coated at 100 μL/well at 4° C. overnight. Excess antigens were washed away, and the plate was blocked with 1% BSA at room temperature for 2 hours. Then, 5-fold gradient dilutions of each monoclonal antibody were added at 100 μL/well and incubated at room temperature for 1 hour. Unbound antibodies were washed away, and an appropriate concentration of Staphylococcal protein A labeled with horseradish peroxidase was added at 100 μL/well and incubated at room temperature for 0.5 hours. Unbound secondary antibodies were washed away, and TMB color development solution was added to react for about 15 minutes. 1M HCL was added at 50 µL/well to terminate the color development reaction, and then the absorbance was measured at 450 nm and the data was analyzed.
(§2) For the five antibodies from yeast, after transient expression in HEK293F cells, the supernatant was collected after 2 days of continuous culture and ELISA assay was performed using 100 μL, 10 μL, and 1 μL of the supernatant.

Experiment [2] addresses T1, extracellular domain of human CD73 …. The experiment is described as follows: ELISA on human CD73-ECD, 10 µL supernatant of transfected HEK293F cells; PBS blank 0.0615. As to the method:
as §1, §2

For experiment [3] the target is unchanged. The experiment is described as follows: ELISA on human CD73-ECD, 100 µL supernatant of transfected HEK293F cells; PBS blank 0.0675. As for the experimental part:
as §1, §2

Experiment [4] has the same target. The experiment is described as follows: ELISA on CD73-ECD, 0.8 µL supernatant of antibody expression, first of two readings; PBS 0.19, 0.18. As to the method: as §1
(§3) CD73 antigen ELISA binding affinity test was performed according to the method of Example 3.

Experiment [5] shares this target. Kind of experiment: ELISA on CD73-ECD, 100 µL supernatant of antibody expression, first of two readings; PBS 0.19, 0.18. As for the experimental part: as §1, §3
Experiment [6] has the same target. The experiment is described as follows: ELISA on CD73-ECD, 20 µL supernatant of antibody expression, second of two readings; PBS 0.19, 0.18. As for the experimental part: as §1, §3
Experiment [7] shares this target. Kind of experiment: ELISA on CD73-ECD, 4 µL supernatant of antibody expression, second of two readings; PBS 0.19, 0.18.
Experiment [8] has the same target. The experiment is described as follows: ELISA on CD73-ECD, 20 µL supernatant of antibody expression, first of two readings; PBS 0.19, 0.18. As to the method: as §1, §3
Experiment [9] has the same target. The experiment is described as follows: ELISA on CD73-ECD, 0.8 µL supernatant of antibody expression, second of two readings; PBS 0.19, 0.18. As for the experimental part:
as §1, §3

For experiment [10] the target is unchanged. The experiment is described as follows: ELISA on CD73-ECD, 4 µL supernatant of antibody expression, first of two readings; PBS 0.19, 0.18. As for the experimental part:
as §1, §3

Experiment [11] shares this target. Kind of experiment: ELISA on CD73-ECD, 100 µL supernatant of antibody expression, second of two readings; PBS 0.19, 0.18.
Experiment [12] has as its target T2, CD73 on the surface of human cells (human, UniProt P21589 27-549).
T2 sequence (looked up): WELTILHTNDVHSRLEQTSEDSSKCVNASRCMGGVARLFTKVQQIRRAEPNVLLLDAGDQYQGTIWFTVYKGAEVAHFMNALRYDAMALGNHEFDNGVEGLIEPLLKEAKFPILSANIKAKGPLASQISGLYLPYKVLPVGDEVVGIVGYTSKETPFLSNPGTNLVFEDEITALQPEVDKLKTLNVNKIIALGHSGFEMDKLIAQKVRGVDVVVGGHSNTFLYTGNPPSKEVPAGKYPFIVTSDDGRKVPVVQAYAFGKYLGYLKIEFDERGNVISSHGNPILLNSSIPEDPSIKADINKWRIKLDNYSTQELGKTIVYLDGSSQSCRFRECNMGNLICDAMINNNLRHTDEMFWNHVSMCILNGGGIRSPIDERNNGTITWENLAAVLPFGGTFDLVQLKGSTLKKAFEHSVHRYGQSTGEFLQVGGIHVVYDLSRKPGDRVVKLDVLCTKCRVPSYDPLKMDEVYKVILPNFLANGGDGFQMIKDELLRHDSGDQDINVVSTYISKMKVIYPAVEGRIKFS
Kind of experiment: cell-based or functional assay.

Where a chain is given by its changes, count along the chain named.

B1: chimeric nanobody 3-A3 (Fc fusion)
VHH: QVQLVESGGGSVQPGGSLRLSCAASGFPLDYYTIGWFRQAPGKELEGVSCISSSDSSPYDADSVKGRFTMSRDNANNTVYLQMNSLKPEDTAVYYCAAQRYYYCSLRANVYDYWGQGTQVTVSS
notes: Tested as supernatant of transiently transfected HEK293F cells
On to B1, for which the “ELISA (OD450)” value in experiment [1] is 0.605 OD450; in experiment [2] it was 2.11 OD450; in experiment [3], 4.27 OD450.

B2: chimeric nanobody 2-G9 (Fc fusion)
VHH: B1 VHH with V2L, S11L, P28L, S105A, S124T
notes: as for B1
For B2, the “ELISA (OD450)” value in experiment [1] came to 0.924 OD450; in experiment [2], 3.35 OD450; in [3] it was 4.41 OD450.

B3: chimeric nanobody 3-F1 (Fc fusion)
VHH: B1 VHH with G9V, G10S, S11L, P28T, V48I, S52R, G66D, V93D, R107T
notes: as for B1
Take B3: the “ELISA (OD450)” value in experiment [1] was found to be 0.143 OD450; in [2] it was 1.11 OD450; in experiment [3] it was 3.01 OD450.

B4: 5-E11 derived antibody 5-E11AS (VHH, not shown: a dimerising Fc or GST)
VHH: ALQLVESGGGLVQPGGSLRLSCEVSGFTLDYYNIGWFRQAPGKEREGVSCSSASGGSTYYADSVKGRFTISRDNAKNTVYLQMNSLKPEDTGVYYCAAYRGWHPSLDARVYDYWGQGTEVTVSS
Regarding B4, the “ELISA reading (not named on the sheet)” value in experiment [4] worked out at 4.22; in [5], 4.28; in experiment [6] it was 4.33; in [7], 4.22; in experiment [8], 4.24; in experiment [9] it was 4.08. In addition, the entries for the “ELISA reading (not named on the sheet)” value in [10] and in experiment [11] were 4.25 and 4.27, respectively.

B5: chimeric nanobody 1-E7 (Fc fusion)
VHH: B4 VHH with A1Q, L2V, E23A, V24A, S51I, A53N, G55D, G92A, E119Q
notes: as for B1
Take B5: the “ELISA (OD450)” value in experiment [1] came out at 0.36 OD450; in [2] it was 1.61 OD450; in experiment [3], 4.11 OD450.

B6: 5-E11 derived antibody 5-E11GS (VHH, not shown: a dimerising Fc or GST)
VHH: B4 VHH with A53G
In the case of B6, the “ELISA reading (not named on the sheet)” value in experiment [4] came to 4.16; in [5], 4.24; in experiment [6], 4.3; in experiment [7], 4.17; in experiment [8] it was 4.15; in experiment [9], 4.11. For the same molecule, the “ELISA reading (not named on the sheet)” value in experiment [10] and in experiment [11] was 4.22 each time.

B7: 5-E11 derived antibody 5-E11QS (VHH, not shown: a dimerising Fc or GST)
VHH: B4 VHH with A53Q
Regarding B7, the “ELISA reading (not named on the sheet)” value is 4.17 in [4]; 4.32 in experiment [5]; 4.29 in [6]; 4.16 in [7]; 4.17 in experiment [8]; 4.08 in experiment [9]. In addition, the “ELISA reading (not named on the sheet)” value in [10] was 4.23; in [11] it was 4.28.

B8: humanized nanobody-drug conjugate 3D7-HM9-FC1-MMAE (Fc fusion, part only; not given: Fc segment and drug payload, part only)
VHH, part: QRQLVESGGGLVQPGGSLRLSCAASGFLLDYYVIGWFRQAPGKEREGVSCISGSDRSTYYADSVKGRFTISRDNAKNTVYLQMSSLRAEDTAVYYCAADPSPVTVQAMCLPRFPVPYWGKGTLVTVSS
modifications: vc-MMAE on cysteines; expected DAR 4 for the dimer
On to B8, for which the EC50, reversal of the AMP inhibition of human T lymphocyte proliferation in experiment [12] came to 0.0197 µg/mL.

B9: humanized antibody fusion protein 3D7-HM9-ABD (VHH)
VHH: B8 VHH, part
As to B9, in experiment [12], the “EC50, reversal of the AMP inhibition of human T lymphocyte proliferation” value came to 0.0467 µg/mL and the “IC50, inhibition of the catalytic function of CD73 enzyme on MDA-MB-231 cells” value turned out to be 0.123 µg/mL.

B10: chimeric nanobody 2-B10 (Fc fusion)
VHH: QLQLVESGGGLVQPGGSLRLSCAASGFTLDDNAIGWFRQAPGKEREGVACMRTSDGDTYYADSVKGRFTISRDNAKNTMYLQMNSLKPEDTAVYYCAAALGTYYSGFYYLAGDGMDYWGKGTLVTVSS
notes: as for B1
Take B10: the “ELISA (OD450)” value in experiment [1] turned out to be 0.254 OD450; in experiment [2] it was 1.28 OD450; in experiment [3] it was 4.46 OD450.
